US20240279335A1, “CD28 SHEDDING BLOCKING AGENTS” (BIOND BIOLOGICS LTD., priority 2021, published 2024)
Changes are numbered by the printed parent chain. Values joined by “and” are separate entries in the source; they are usually repeats but may differ in a detail not shown here. Equal values may be shown once. Read-outs that look alike come from different tables or passages of the source.

B1: VHH 2A1 (VHH)
VHH: EVQLVESGGGLVQAGESLRLSCAASGSIASINAMGWYRQAPGSQRELVAAISGGGDTYYADSVKGRFTISRDNAKTTVYLQMNSLRPEDTAVYYCVVDLYGSDYWDWGQGTQVTVSS
notes: Monomeric llama VHH; also called VHH #2A01; monomeric 2A1
B2: VHH 6B10: affinity matured variant of VHH 2A1, SEQ ID NO: 28 (protein)
VHH: B1 VHH with L99T, Y100H, G101R, S102G, D103V, D106Y
B3: VHH 11E11 (VHH)
VHH: EVQLVESGGGLVQAGESLRLSCAASGSIASINSMAWYRQAPGSQRELVAAISNAREVYYADSVKGRFTISRDNAKTTVYLQMNSLRPEDTAVYYCVVDVYFQEYWYWGQGTQVTVSS
B4: VHH 11G11 (VHH)
VHH: EVQLVESGGGLVQAGESLRLSCAASGSIASINTMAWYRQAPGSQRELVAAINSISRTYYADSVKGRFTISRDNAKTTVYLQMNSLRPEDTAVYYCVVDVTKEDYWYWGQGTQVTVSS
B5: VHH 9B3 (VHH)
VHH: B3 VHH with N32R, S33T, N53S, A54G, V99M, F101W, E103D, Y106W
notes: also called 9B03
B6: VHH 5A3 (VHH)
VHH: B1 VHH with A33S, S52N, G53E, G54K, G55L, D56L, T57I
notes: also called 5A03
B7: VHH 9A7 (VHH)
VHH: EVQLVESGGGLVQAGESLRLSCAASGSIASINSMGWYRQAPGSQRELVAAISDRSEKYYADSVKGRFTISRDNAKTTVYLQMNSLRPEDTAVYYCVVDHHHSDWWTWGQGTQVTVSS
notes: also called 9A07
B8: VHH 10E1 (VHH)
VHH: B4 VHH with N32K, S53Y, S55K, R56E, T57I
notes: also called 10E01
B9: VHH 12A09: affinity matured variant of VHH 2A1, SEQ ID NO: 32 (protein)
VHH: B4 VHH with N32K, A49T, N52A, I54D, S55N, T57K
B10: 2A1-Hinge: VHH 2A1 with human IgG1 hinge region downstream, dimeric, SEQ ID NO: 114 (protein)
chain: EVQLVESGGGLVQAGESLRLSCAASGSIASINAMGWYRQAPGSQRELVAAISGGGDTYYADSVKGRFTISRDNAKTTVYLQMNSLRPEDTAVYYCVVDLYGSDYWDWGQGTQVTVSSDKTHTCPPCPAPEL
modifications: dimeric

Columns and labels:
[1] = molecular target: T1, soluble CD28 (sCD28) from SEB stimulated PBMC (Homo sapiens, UniProt P10747); assay type: cell-based
T1 construct: PBMCs were isolated from fresh blood samples of healthy donors; endogenous in cells; host or cells: human PBMCs from healthy donors, SEB-stimulated

[2] = molecular target: human CD28 on the cell surface (membranal CD28) (human) (UniProt P10747); assay: flow cytometry on human CD3 cells, 300 nM, anti-human IgG VHH Alexa Fluor 647
[3] = molecular target: human CD28 on the cell surface (membranal CD28) (human) (UniProt P10747); assay: as above; remark: listed apart in the source
[4] = molecular target: T2, human CD28-Fc chimera (R&D, Cat. No. 342-CD) (human, UniProt P10747 19-152); assay: ELISA: serial dilution of the agent on recombinant human CD28-Fc fusion protein, OD read
T2 construct: Bought reagent; also called recombinant human CD28-Fc fusion protein; recombinant CD28 fused to an Fc backbone; Fc part of the bought chimera not given

[5] = tested on: isolated T cells mixed with mature dendritic cells; assay: Allogeneic mixed lymphocyte reaction (MLR), cytokine secretion; assay type: cell-based, human; conditions: monomeric affinity matured VHHs; especially at high concentrations; FIG. 2
Protocol: (§1) Cytokines ELISA—Commercial ELISA kits were used for quantitation of the amount of human interferon-gamma (Biolegend, Cat. No. 430103), human interleukin 2 (Biolegend, Cat. No. 431802) and human CD28 (R&D system, Cat. No. DY342). Cell Proliferation and viability (MTT assay) was conducted to assure validity of results and performed according to manufacturer instructions (Roche, Cat. No. 11465007001).
Dendritic cell differentiation—Monocytes were cultured at a density of 1×10^6/mL in RPMI medium with growth factors that was refreshed at day 3 and at day 6. […] When needed the iDCs were further differentiated into mature dendritic cells by addition of 100 ng/mL LPS (Sigma, Cat. No. L4391) and 20 ng/mL interferon-gamma (R&D systems, Cat. No. 285-IF) for 48 hrs. The generated cell populations were tested for the indicated phenotypes by FACS analysis of relevant markers and by analysis of secretion of characteristic cytokines.
Allogeneic Mixed Lymphocyte Reaction—0.1×10^6 T cells were mixed with […] dendritic cells from different donor for 24-96 hours at 37° C. with/without the indicated concentration of treatments. Assays were conducted in complete RPMI-1640 media supplemented with 10% FCS and pen/strep mixture. […]

[6] = molecular target: T3, CD28-Fc (Homo sapiens, UniProt P10747); assay: Biacore multi-cycle kinetics on immobilized CD28-Fc; assay type: binding; conditions: Table 3, monomeric VHH clones; for ka: affinity constants to CD28-Fc
T3 construct: Fc
Protocol: Biacore—Affinity clones derived from VHH #2A01 affinity maturation libraries was determined using CD28-Fc immobilized on a CM5 Series S sensor chip. Multi-cycle kinetics measurements were done using 5 step dilutions of the analytes (VHH clones) from 200 nM down to 12.5 nM. Kinetic parameters and affinity values were calculated using the 1:1 binding model in Biacore T 200 E valuation software 3.1 by introducing a double (blank channel and blank sample) subtraction.

[7] = molecular target: T2, human CD28-Fc chimera (R&D, Cat. No. …); assay: SPR (Biacore), CD28-Fc immobilized on CM5 chip, VHH as analyte, multi-cycle kinetics, 1:1 model
[8] = tested on: isolated CD3 T cells; assay: T cell stimulation with HEK/CD80/scOKT3 artificial antigen presenting cells (aAPC-CD80), IL-2 secretion; assay type: cell-based, human; conditions: various concentrations, FIG. 13A-13F, 17A-17F
Protocol: as §1
T cells stimulation with HEK/CD80/scOKT3 artificial antigen presenting cells (aAPC-CD80)—1×10^5 isolated CD3 T cells (from healthy donors) were stimulated with 0.5×10^4 mitomycin treated aAPC-CD80 (HEK293 cells stably transfected with CD80 and scOKT3-CD14 chimera plasmids) for 24-72 hr at 37° C. Treatments of VHH targeting CD28 or controls were added at the indicated concentration in soluble form. When stated, VHH #3C04 (raised against human HER2) was used as an “irrelevant control” and VHH #12B09 was used as a “positive control” for a nanobody with CD28 antagonist effect. Assays were conducted in complete RPMI-1640 media supplemented with 10% FCS and pen/strep mixture.

Row | Molecule | kd ([6]; CD28-Fc) | ka [6] | Kd [7] | koff [7] | kon [7] | also measured
1 | CC#CCOc1ccc(S(=O)(=O)N2CCSC(C)(C)[C@@H]2C(=O)NO)cc1 [TMI, reference compound] |  |  |  |  |  | sCD28 levels / inhibition of sCD28 production [1]: greatly reduced sCD28 levels
2 | Isotype hIgG4 (antibody) |  |  |  |  |  | MFI [2]: 71.9 MFI; MFI [3]: 116 MFI
3 | B1 |  |  |  |  |  | EC50 (read off the curve) [4]: ~40 nM
4 | B2 |  |  |  |  |  | blocking of CD28 shedding compared to the parental VHH [1]: superior to the parental VHH; proinflammatory cytokine (IFN gamma) secretion in MLR, antagonistic effect [5]: robust antagonistic effect
5 | B3 | 1.64e-05 s⁻¹ | 46600 M⁻¹ s⁻¹ | 0.352 nM | 1.64e-05 s⁻¹ | 46600 M⁻¹ s⁻¹ | 
6 | B4 | 5.77e-06 s⁻¹ | 47800 M⁻¹ s⁻¹ | 0.12 nM and 0.121 nM | 5.77e-06 s⁻¹ | 47800 M⁻¹ s⁻¹ | 
7 | B5 | 7.17e-08 s⁻¹ | 112000 M⁻¹ s⁻¹ | 0.000642 nM | 7.17e-08 s⁻¹ | 112000 M⁻¹ s⁻¹ | 
8 | B6 | 3.78e-05 s⁻¹ | 33800 M⁻¹ s⁻¹ | 1.12 nM | 3.78e-05 s⁻¹ | 33800 M⁻¹ s⁻¹ | blocking of CD28 shedding compared to the parental VHH [1]: superior to the parental VHH; proinflammatory cytokine (IFN gamma) secretion in MLR, antagonistic effect [5]: robust antagonistic effect
9 | B7 | 9.78e-06 s⁻¹ | 51500 M⁻¹ s⁻¹ | 0.19 nM | 9.78e-06 s⁻¹ | 51500 M⁻¹ s⁻¹ | 
10 | B8 | 2.84e-06 s⁻¹ | 44400 M⁻¹ s⁻¹ | 0.0639 nM | 2.84e-06 s⁻¹ | 44400 M⁻¹ s⁻¹ | 
11 | B9 | 3.43e-07 s⁻¹ | 83400 M⁻¹ s⁻¹ |  |  |  | Kd ([6]; CD28-Fc): 0.0041 nM
12 | B10 |  |  |  |  |  | sCD28 levels / inhibition of sCD28 production [1]: did inhibit sCD28 production, but only at levels that were comparable to the 2A1 monomer; IL-2 secretion, antagonistic effect [8]: no effect on IL-2 secretion
